T1: CEACAM1 (as used for the Kd / Kon / Koff values) (human, UniProt P13688 35-428, limits assumed)
T1 sequence (looked up): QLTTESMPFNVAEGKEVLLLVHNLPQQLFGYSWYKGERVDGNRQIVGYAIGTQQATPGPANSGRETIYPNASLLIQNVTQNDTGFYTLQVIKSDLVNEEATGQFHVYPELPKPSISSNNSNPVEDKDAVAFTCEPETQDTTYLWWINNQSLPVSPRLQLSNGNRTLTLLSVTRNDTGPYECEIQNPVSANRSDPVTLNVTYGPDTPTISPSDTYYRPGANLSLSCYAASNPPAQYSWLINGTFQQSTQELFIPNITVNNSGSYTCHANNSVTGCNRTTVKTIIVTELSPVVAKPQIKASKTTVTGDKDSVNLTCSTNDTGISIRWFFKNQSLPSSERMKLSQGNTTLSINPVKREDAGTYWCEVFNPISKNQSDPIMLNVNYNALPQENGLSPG

B1: Anti-human CEACAM1 antibody (Clone B3-17) (antibody, V domains shown)
VH: GPELVKPGTSVKMSCKASGYTFTTYVMHWVQQKPGQGLDWIGFFNPYNDGTKYNEKFKGKATLTSDKSSSTAYMELSSLTSEDSAVYYCARWAYDGSYAYWGQGTTLTVSS
VL: SYLSVFLGGRVTITCKASDHINNWLAWYQQKPGNAPRLLISGATSLETGVPSRFSGSGSGKDYTLSIISLQTEDVATYYCQQYWRTPFTFGSGTKLEIK
notes: Mouse monoclonal antibody from hybridoma B3-17; also called Antikörper B3-17; antibody B3-17
B2: Anti-human CEACAM1 antibody (Clone 6G5J) (antibody, V domains shown)
VH: KPGETVKISCKTSGYIFRNYGMKWVKQAPGKGLKWMGWINTYTGEPTYADDFKGRFAFSLETSASTAYLQINNLKNEDMATYFCARRGMITTSNYALDNWGQGTSVTVSS
VL: SSLSASLGDRVTISCRASQDISNYLNWYQQKPDGTIKLLIYYTSKLHSGVPSRFSGSGSGTDYSLTISNLDQEDIATYFCQQGNTLPWTFGGGTKLEIK
notes: Mouse monoclonal antibody from hybridoma 6G5J; also called Antikörper 6G5J; antibody 6G5J
B3: Anti-human CEACAM1 antibody (Clone 18-20) (antibody, V domains shown)
VH: KPGETVKISCKASGYTFTVYGMNWVKQAPGKDLKWMGWINTYTGEPTYADDFKGRFAFSLETSASTAYLQINNLKNEDMATYFCARKAFYRYDGGMDYWGQGTSVTVSS
VL: SSLSASLGGKVTITCKASQDINKFLAWYQHKPGKGPRLLIHYTSTLQPGIPSRFSGSGSGRDYSFSISNLEPEDIATYYCLQYDNLYTFGGGTKLEIK
notes: Mouse monoclonal antibody from hybridoma 18-20; also called Antikörper 18-20; antibody 18-20

The target in this experiment is T1, CEACAM1 (as used for the Kd / Kon / …). In words: method not stated.
For the molecule B1, the Kd was 0.01 µM. That is a double-digit nanomolar value.

B2 gave a Kd of 0.023 µM. The figure for B3 is 0.026 µM.

Source of the values: patent WO2018019380A1 (dated 2018).
